# Laboratory results from publication PMC10307800, “Structure of human CALHM1 reveals key locations for channel regulation and blockade by ruthenium red” (Nature Communications, 2023).
# “And” between values parts separate entries of the source, which are not always exact repeats. Equal entries are not always repeated.
# B1: human CALHM1Δct (calcium homeostasis modulator 1, residues 1-303, C-terminal Strep-II tag) (domain or fragment, UniProt Q8IU99 1-303, looked up)
# chain: MMDKFRMIFQFLQSNQESFMNGICGIMALASAQMYSAFDFNCPCLPGYNAAYSAGILLAPPLVLFLLGLVMNNNVSMLAEEWKRPPGRRAKDPAVLRYMFCSMAQRALIAPVVWVAVTLLDGKCFLCAFCTAVPVSALGNGSLAPGLPAPELARLLARVPCPEIYDGDWLLAREVAVRYLRCISQALGWSFVLLTTLLAFVVRSVRPCFTQAAFLKSKYWSHYIDIERKLFDETCTEHAKAFAKVCIQQFFEAMNHDLELGHTHGTLATAPASAAAPTTPDGAEEEREKLRGITDQGTMNRLL
# notes: calcium homeostasis modulator 1 (CALHM1), human, residues 1-303 (C-terminal truncation; residues 303-346 follow the CTH in the whole protein); Octamer in the 3D reconstruction; nonameric particles were also seen in 2D classes; also called hCALHM1Δct; hCALHM1∆ct; source: HEK293S GnTI- cells, baculovirus infection; purified (Strep-Tactin, SEC), reconstituted into lipid nanodiscs (MSP2N2, soybean …)
# Experiments:
# [1] = target: chicken CALHM1Δct (residues 1-291, C-terminal Strep-II tag) (chicken); experiment: cryo-EM 2D classification; 'top' views of 2D classification of the same nanodisc samples
# [2] = target: chicken CALHM1Δct (residues 1-291, C-terminal Strep-II tag) (chicken); experiment: cryo-EM structure; single-particle 3D reconstruction in lipid nanodiscs (soybean polar extract, MSP2N2); chicken: 20 mM Tris pH 8.0, 150 mM NaCl, 1 mM EDTA; human: 20 mM HEPES-NaOH pH 7.5, 200 mM NaCl, 1 mM EDTA
# [3] = target: human CALHM1Δct-Ile109Trp (C-terminal Strep-II tag) (human) (UniProt Q8IU99); experiment: cryo-EM structure; single-particle reconstruction in lipid nanodiscs, 20 mM HEPES-NaOH pH 7.5, 200 mM NaCl; with RuR (50 µM RuR, 1 mM EGTA; C8 and C1 maps) and RuR-free (1 mM EDTA)
# [4] = target: killifish CALHM1Δct (killifish); experiment: cryo-EM 2D classification; reanalysis of the publicly available dataset EMPIAR #10444
# [5] = target: the molecule itself; experiment: cryo-EM 2D classification; 'top' views of 2D classification of the same nanodisc samples
# [6] = target: the molecule itself; experiment: cryo-EM structure; single-particle 3D reconstruction in lipid nanodiscs (soybean polar extract, MSP2N2); chicken: 20 mM Tris pH 8.0, 150 mM NaCl, 1 mM EDTA; human: 20 mM HEPES-NaOH pH 7.5, 200 mM NaCl, 1 mM EDTA
molecule,measurement,setting,value
"chicken CALHM1Δct (residues 1-291, C-terminal Strep-II tag) (domain or fragment)",stoichiometry N,[1],8 and 9
same,stoichiometry N,[2],8
human CALHM1Δct-Ile109Trp (C-terminal Strep-II tag) (from UniProt Q8IU99 1-303) (domain or fragment),stoichiometry N,[3],8
killifish CALHM1Δct (domain or fragment),stoichiometry N,[4],8 and 9
B1,stoichiometry N,[5],9
same,stoichiometry N,[6],8
